Measured values as given in patent US20240309093A1 (MINGHUI PHARMACEUTICAL HANGZHOU, published 2024).
Residue numbers refer to the chain shown, from its start.

B1: MHPD1-A-7 H Fc (Fc fusion)
chain: QVQLVESGGGLVQPGGSLRLSCATSGSRRSIYAMGWFRQAPGKGLEFVAGIGWAYATTYYADSVKGRFTISRDNTKNTLYLQMNSLRAEDTAVYYCAADLDHSGFDYWGQGTLVTVSS
notes: parent of the second round; also called parent MHPD1-A-7 H Fc; not shown: Fc
B2: MHPD1-A-4 H Fc (Fc fusion, not shown: a dimerising Fc or GST)
chain: B1 chain with T24A, R28V, R29G, Y55F
B3: MHPD1-A-3 H Fc (Fc fusion, not shown: a dimerising Fc or GST; small tags and cut ends)
VHH: B1 chain with T24A, R28G, A54S
B4: Pembrolizumab (antibody, human IgG4 S228P, kappa, V domains shown)
VH: QVQLVQSGVEVKKPGASVKVSCKASGYTFTNYYMYWVRQAPGQGLEWMGGINPSNGGTNFNEKFKNRVTLTTDSSTTTAYMELKSLQFDDTAVYYCARRDYRFDMGFDYWGQGTTVTVSS
VL: EIVLTQSPATLSLSPGERATLSCRASKGVSTSGYSYLHWYQQKPGQAPRLLIYLASYLESGVPARFSGSGSGTDFTLTISSLEPEDFAVYYCQHSRDLPLTFGGGTKVEIKR
B5: MHPD1-A-H19 Fc (Fc fusion, not shown: a dimerising Fc or GST; small tags and cut ends)
VHH: B1 chain with T24A, R28D, R29P, A54S, Y55A
notes: Second round of humanization; also called humanized nanobody-Fc fusion protein; parent MHPD1-A-H19 Fc
B6: MHPD1-A-H2 Fc (Fc fusion, not shown: a dimerising Fc or GST; small tags and cut ends)
VHH: QVQLVESGGGSVQVGGSLRLSCAASGSDPSIYAMGWFRQAPGKEHEFVAGIGWSAATTYYADSVKGRFGISRDNTKNTVALLMNSLRAEDTAIYYCAADLDHSGFDYWGQGTQVTVSS
notes: First round of humanization of MHPD1-A; also called humanized nanobody-Fc fusion protein
B7: MHPD1-A-H6 Fc (Fc fusion, not shown: a dimerising Fc or GST; small tags and cut ends)
VHH: B6 VHH with R19T, G35M, R87K, A88P
notes: as for B6
B8: MHPD1-A-H5 Fc (Fc fusion, not shown: a dimerising Fc or GST; small tags and cut ends)
VHH: B6 VHH with R19T, A80Y, L82Q, R87K, A88P
notes: as for B6
B9: MHPD1-A-H7 Fc (Fc fusion, not shown: a dimerising Fc or GST; small tags and cut ends)
VHH: B6 VHH with R19T, G35M, T75S, R87K, A88P
notes: as for B6
B10: MHPD1-A-H8 Fc (Fc fusion, not shown: a dimerising Fc or GST; small tags and cut ends)
VHH: B6 VHH with R19T, E44G, H45L, R87K, A88P
notes: as for B6
B11: MHPD1-A-H9 Fc (Fc fusion, not shown: a dimerising Fc or GST; small tags and cut ends)
VHH: B6 VHH with V14P, Q113L
notes: also called humanized nanobody-Fc fusion protein
B12: MHPD1-A-H1 Fc (Fc fusion, not shown: a dimerising Fc or GST; small tags and cut ends)
VHH: B6 VHH with V14P, R19T, R87K, A88P, Q113L
notes: as for B6
B13: MHPD1-A-H10 Fc (Fc fusion, not shown: a dimerising Fc or GST; small tags and cut ends)
VHH: B6 VHH with V14P, G69T, V79L, R87K, A88P, Q113L
notes: as for B6
B14: MHPD1-A-H3 Fc (Fc fusion, not shown: a dimerising Fc or GST; small tags and cut ends)
VHH: B6 VHH with R19T, V79L, R87K, A88P
notes: as for B6
B15: MHPD1-A-H17 Fc (Fc fusion, not shown: a dimerising Fc or GST; small tags and cut ends)
VHH: B1 chain with L11S, T24A, R28D, R29P, A54S, Y55A, V93I
notes: Second round of humanization of MHPD1-A; also called humanized nanobody-Fc fusion protein
B16: MHPD1-A-H18 Fc (Fc fusion, not shown: a dimerising Fc or GST; small tags and cut ends)
VHH: B1 chain with T24A, R28D, R29P, A54S, Y55A, V93I
notes: as for B15
B17: MHPD1-A-H16 Fc (Fc fusion, not shown: a dimerising Fc or GST; small tags and cut ends)
VHH: B6 VHH with S11L, V14P, I93V, Q113L
notes: as for B15
B18: MHPD1-A-H14 Fc (Fc fusion, not shown: a dimerising Fc or GST; small tags and cut ends)
VHH: B6 VHH with V14P, A80Y, L82Q, Q113L
notes: as for B15
B19: MHPD1-A-H15 Fc (Fc fusion, not shown: a dimerising Fc or GST; small tags and cut ends)
VHH: B6 VHH with V14P, G69T, V79L, A80Y, L82Q, Q113L
notes: as for B15
B20: MHPD1-A-H12 Fc (Fc fusion, not shown: a dimerising Fc or GST; small tags and cut ends)
VHH: B6 VHH with V14P, G69T, V79L, Q113L
notes: as for B15
B21: MHPD1-A (VHH)
VHH: B6 VHH with R19T, R87K, A88P
notes: tag not described; also called VHH; single-domain antibody MHPD1-A

target: PD1 on Jurkat-NFAT-PD1 transgene cells; experiment: cell-based or functional assay

Binder | luciferase reporter gene fluorescence signal, Jurkat-NFAT-PD1 effector cells with Hep3B-OS8-PDL1 target cells (EC50) [nM]
B1 | 0.07
B2 | 0.09
B3 | 0.078
B4 | 0.091

target: T1, recombinant human PD-1-his protein (human, UniProt Q15116 25-167); experiment: ELISA; PD-1-his coated 2 µg/mL, anti-human IgG Fc-HRP
T1 construct: also called hPD-1-his; not shown: his tag
T1 sequence (Q15116 25-167 limits assumed): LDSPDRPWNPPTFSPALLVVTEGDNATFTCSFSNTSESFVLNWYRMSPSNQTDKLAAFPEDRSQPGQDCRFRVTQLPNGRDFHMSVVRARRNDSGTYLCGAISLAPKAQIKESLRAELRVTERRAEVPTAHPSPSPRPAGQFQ
Experimental: (§1) The plates were washed three times with PBST. 5% PBS-Milk was added and incubated at room temperature for 2 h. The plates were washed three times with PBST. All the nanobody-Fc fusion proteins were subject to 3-fold gradient dilutions with an initial concentration of 10 μg/mL, added into each well at 30 μL/well, and incubated at room temperature for 1 hr. The plates were washed three times with PBST. The secondary antibody Goat-Anti-Human-IgG-Fc-HRP was diluted at 1:8000, added into each well at 30 μL/well, and incubated at room temperature for 50 min. The plates were washed nine times with PBST. TMB was added into each well at 30 μL/well and developed at room temperature in dark for 1 min to 5 min. 2 M hydrochloric acid was added at 30 μL/well to stop the reaction. The OD450 absorbance value was read by a microplate reader. Graphpad Prism software was used to fit the curve and calculate the EC₅₀ value (see Table 7).

Binder | EC50 [nM]
B1 | 0.135
B5 | 0.369
B2 | 0.169
B3 | 0.251

target: T1, recombinant human PD-1-his protein; experiment: as above; remark: another data set of the same source
Experimental: as §1, with “PBS-Milk” for “PBS-Milk was added”, “3-folded” for “3-fold”, “dilution” for “dilutions”, “calculate” for “calculate the”, “values.” for “value (see Table 7).”

Binder | EC50 [nM]
B1 | 0.149

target: T2, recombinant human PD-1-Fc-Biotin (human, UniProt Q15116 25-167, biotin (site not stated)); experiment: competitive ELISA; PD-L1-mFc coated, 0.5 µg/mL PD-1-Fc-Biotin, streptavidin-HRP
T2 construct: also called antigen protein human PD-1; not shown: Fc
T2 sequence (Q15116 25-167 limits assumed): as above
Experimental: (§2) The plates were washed three times with PBST. 5% PBS-Milk was added and incubated at room temperature for 1 hr. All the nanobody-Fc fusion proteins were subject to 3-fold gradient dilutions with an initial concentration of 10 μg/mL, added into each well at 30 μL/well, and incubated at room temperature for 1 hr. […] The well plates were washed with PBST between incubations.

Binder | IC50 [nM]
B1 | 0.316
B5 | 1.31
B2 | 0.281
B3 | 0.275

target: T2, recombinant human PD-1-Fc-Biotin; experiment: as above; remark: another data set of the same source
Experimental: as §2, with “The” for “The well”

Binder | IC50 [nM]
B1 | 0.778

target: T1, recombinant human PD-1-his protein; experiment: ELISA (first round of humanization); PD-1-his coated 2 µg/mL, anti-human IgG Fc-HRP
Experimental: (§3) 96-well ELISA plates were coated with 2 μg/mL of recombinant human PD-1-his antigen protein at 30 μL/well at 4° C. overnight. The plates were washed three times with PBST. 5% PBS-Milk was added and incubated at room temperature for 2 h. The plates were washed three times with PBST. All the nanobody-Fc fusion proteins were subject to 3-fold gradient dilutions with an initial concentration of 10 μg/mL, added into each well at 30 μL/well, and incubated at room temperature for 1 hr. The plates were washed three times with PBST. The secondary antibody Goat-Anti-Human-IgG-Fc-HRP (purchased from Sigma) was diluted at 1:8000, added into each well at 30 μL/well, and incubated at room temperature for 50 min. The plates were washed three times with PBST. TMB (purchased from SurModics) was added into each well at 30 μL/well and developed at room temperature in dark for 1 min to 5 min. 2 M hydrochloric acid was added at 30 μL/well to stop the reaction. The OD450 absorbance value was read by a microplate reader.

Binder | EC50 [µg/mL]
B6 | 0.22
B7 | 2.91
B8 | 0.35
B9 | 2.54
B10 | 0.2
B11 | 0.15
B12 | 0.24
B13 | 0.32
B14 | 0.16

target: T1, recombinant human PD-1-his protein; experiment: ELISA (second round of humanization); PD-1-his coated 2 µg/mL, anti-human IgG Fc-HRP
Experimental: as §3

Binder | EC50 [nM]
B5 | 0.55
B15 | 0.64
B16 | 1.29
B17 | 2.29
B18 | 1.88
B19 | 2.15
B20 | 4.32

target: T3, recombinant human PD-1 protein (human, UniProt Q15116 25-167, limits assumed); experiment: competitive ELISA; PD-1 coated 2 µg/mL, 4 µg/mL PD-L1-Fc as competitor, anti-human IgG-HRP
T3 construct: also called recombinant human PD-1 antigen; human recombinant PD-1
T3 sequence (Q15116 25-167 limits assumed): as above
Experimental: Ninety-six-well plates were coated with recombinant human PD-1 antigen (2 μg/mL) at 4° C. overnight. The plates were blocked with 1% casein. […] The plates were washed with PBST between incubations.

Binder | EC50 [µg/mL]
B21 | 1.71
